{"source": "patent US10196442B2", "about": "“Methods of inhibiting growth of a colon cancer tumor in a subject by administering monoclonal antibodies to G protein-coupled receptor 49 (GPR49)” (Bionomics Inc., priority 2011, dated 2019)", "key": {"[1]": {"tested_on": "NIH 3T3 fibroblast cells stably transfected with GPR49", "assay": "Cell Titer Glo proliferation of GPR49-3T3 cells", "format": "cell-based"}, "GPR49-Fc": {"molecular_target": "T1, GPR49-Fc (Homo sapiens, UniProt O75473)", "T1 construct": "FLAG (C)", "T1 sequence (O75473 with tags, fused parts or gaps)": "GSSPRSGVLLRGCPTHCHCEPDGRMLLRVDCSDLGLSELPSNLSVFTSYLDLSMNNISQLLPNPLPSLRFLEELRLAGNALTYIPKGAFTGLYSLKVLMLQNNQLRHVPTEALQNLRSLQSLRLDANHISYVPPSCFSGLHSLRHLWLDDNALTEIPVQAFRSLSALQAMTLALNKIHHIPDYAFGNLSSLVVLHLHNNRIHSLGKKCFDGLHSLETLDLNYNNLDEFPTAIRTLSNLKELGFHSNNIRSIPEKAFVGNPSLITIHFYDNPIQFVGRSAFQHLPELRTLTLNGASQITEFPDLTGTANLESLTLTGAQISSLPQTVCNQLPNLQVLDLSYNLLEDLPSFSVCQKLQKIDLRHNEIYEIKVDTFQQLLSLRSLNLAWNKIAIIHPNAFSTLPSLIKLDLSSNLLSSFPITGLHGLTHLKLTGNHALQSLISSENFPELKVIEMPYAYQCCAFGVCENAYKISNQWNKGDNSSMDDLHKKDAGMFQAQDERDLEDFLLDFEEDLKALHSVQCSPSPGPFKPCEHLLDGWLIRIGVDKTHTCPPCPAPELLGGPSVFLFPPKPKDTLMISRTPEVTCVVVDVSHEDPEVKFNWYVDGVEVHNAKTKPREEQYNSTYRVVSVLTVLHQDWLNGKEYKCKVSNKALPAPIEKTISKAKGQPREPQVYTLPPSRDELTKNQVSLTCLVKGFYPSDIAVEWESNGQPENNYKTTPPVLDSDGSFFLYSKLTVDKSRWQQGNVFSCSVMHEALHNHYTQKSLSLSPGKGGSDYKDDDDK", "assay": "Solution affinity surface plasmon resonance of RSPO-1 on GPR49-Fc", "format": "binding", "conditions": "solution affinity SPR", "experimental": "Methods: Binding of RSPO to GPR49 was analyzed using solution affinity surface plasmon resonance (Day E S, et al. Biochemistry. 2005 Feb. 15; 44(6):1919-31). The method utilizes conditions of so-called “mass-transport-limited” binding, in which the initial rate of ligand binding (protein binding to the senor chip) is proportional to the concentration of ligand in solution (BIApplications Handbook (1994) Chapter 6: Concentration measurement, pp 6-1-6-10, Pharmacia Biosensor AB). Under these conditions, binding of the soluble analyte (protein flowing over chip surface) to the immobilized protein on the chip is fast compared to the diffusion of the analyte into the dextran matrix on the chip surface. Therefore, the diffusion properties of the analyte and the concentration of analyte in solution flowing over the chip surface determine the rate at which analyte binds to the chip. In this experiment, the concentration of free RSPO-1 in solution is determined by the initial rate of binding to a CMS Biacore chip containing immobilized GPR49-Fc. Into these RSPO-1 solutions were titrated the competing GPR49-Fc."}}, "data": [{"molecule": "R-spondin 1: R-spondin family ligand purchased from R& D systems (protein, UniProt Q2MKA7 21-263, looked up) R-spondin-1: SRGIKGKRQRRISAEGSQACAKGCELCSEVNGCLKCSPKLFILLERNDIRQVGVCLPSCPPGYFDARNPDMNKCIKCKIEHCEACFSHNFCTKCKEGLYLHKGRCYPACPEGSSAANGTMECSSPAQCEMSEWSPWGPCSKKQQLCGFRRGSEERTRRVLHAPVGDHAACSDTKETRRCTVRRVPCPEGQKRRKGGQGRRENANRNLARKESKEAGAGSRRRKGQQQQQQQGTVGPLTSAGPA", "values": [{"measurement": "increase in proliferation", "setting": "[1]; GPR49-3T3 clone 28, compared to Stanniocalcin", "result": 4, "unit": "fold"}, {"measurement": "increase in cell proliferation", "setting": "[1]; GPR49-3T3 clone 50, 2 days, serum free, compared to Stanniocalcin", "result": "25-40%"}, {"measurement": "binding profile to GPR49-Fc", "setting": "GPR49-Fc", "result": "bi-phasic binding profile"}]}]}
